Values belong to the molecule of their own block, whether it stands above or below them.
B4: PCNA (proliferative cell nuclear antigen) from Pyrococcus abyssi (natural protein, UniProt Q9UYX8 1-249, looked up)
chain: MPFEIVFEGAKEFAQLIETASRLIDEAAFKVTEEGISMRAMDPSRVVLIDLNLPASIFSKYEVDGEETIGVNMDHLKKVLKRGKAKETLILRKGEENFLEISLQGTATRTFKLPLIDVEEIEVDLPELPFTAKVVILGDVIKEAVKDASLVSDSMKFIAKENEFTMRAEGETQEVEVKLTLEDEGLLDIEVQEETKSAYGISYLSDMVKGLGKADEVTIKFGNEMPMQMEYYIRDEGRLIFLLAPRVEE
notes: PCNA, Pyrococcus abyssi; open reading frame optimized and synthesized, in pET28-a(+) with a thrombin-cleavable N-terminal 6xHis tag; PCNA as used in cryo-EM, crystallisation, BLI (analyte) and primer extension; also called sliding clamp; source: E. coli BL21-CodonPlus (DE3)-RIPL, purified (heat step, HisTrap, heparin, size exclusion)

Tests used:
[1] = target: primase (Saccharomyces cerevisiae) (UniProt P10363); details: cited from earlier work
[2] = target: PolD DP1 (small subunit, exonuclease-deficient);PolD DP2 (large catalytic subunit);PCNA (Pyrococcus abyssi;Pyrococcus …, UniProt Q9V2F3;PDB:6T8H_3;Q9UYX8 1-619;1-1275;1-249, H451A||); assay: cryo-EM structure (3.77 A); 2 mM Mg-acetate, 0.1 mM dAMPCPP (incoming nucleotide not seen in the map); Cryo-EM sample: 0.4 uM PolD, 1.2 uM PCNA, 0.7 uM DNA, 20 mM Na-HEPES pH 8, 0.01 mM NaCl (so in the source), 2 mM Mg-acetate, 0.1 mM dAMPCPP, 20 min at 4 C; details: protein: recombinant;recombinant;recombinant; copies: 1;1;3; 5' overhang 7 nt on template strand (18 bp duplex)
[3] = target: T1, His6-tagged PCNA from Pyrococcus abyssi (Pyrococcus abyssi, UniProt Q9UYX8 1-249); assay: SPR; Biacore T200; ~2000 RU His-tagged PCNA and PriS-PriL(1–210) on an NTA chip, His-tagged MBP as reference; cPIP peptide 0-200 µM, 30 s at 30 µL/min, 25 °C, buffer E with 100 µM EDTA; steady-state fit; details: both partners purified
T1 construct: PCNA, Pyrococcus abyssi; open reading frame optimized and synthesized, in pET28-a(+) with a thrombin-cleavable N-terminal 6xHis tag; PCNA with its His tag kept, captured on the NTA chip for SPR; also called His-tagged PCNA; source: E. coli BL21-CodonPlus (DE3)-RIPL, purified (heat step, HisTrap, heparin, size exclusion); not shown: His6, N-terminal, kept
T1 sequence (looked up): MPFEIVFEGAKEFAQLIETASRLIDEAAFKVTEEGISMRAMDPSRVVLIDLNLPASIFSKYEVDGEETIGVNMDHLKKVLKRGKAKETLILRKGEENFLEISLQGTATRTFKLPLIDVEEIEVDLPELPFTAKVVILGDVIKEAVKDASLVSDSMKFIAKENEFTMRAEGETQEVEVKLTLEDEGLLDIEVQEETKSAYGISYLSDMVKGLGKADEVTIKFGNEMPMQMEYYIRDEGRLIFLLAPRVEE

[4] = target: B4; assay: BLI; Octet RED384; His-MBP-fused DP2 constructs captured on Ni-NTA biosensors (1.5 nm); PCNA or PriS-PriL(1–210) 31.25-2000 nM, 300 s, 25 °C, buffer E (20 mM Na-Hepes pH 8, 0.15 M NaCl) with 0.2 mg/mL BSA; steady-state fit; details: both partners purified
[5] = target: the molecule itself; assay: cryo-EM structure; 0.4 µM PolD (DP1 H451A), 1.2 µM PCNA, 0.7 µM primed DNA duplex (18-mer primer, 7-nt overhang), 0.1 mM dAMPCPP, buffer F (20 mM Na-Hepes pH 8, 0.01 mM NaCl, 2 mM Mg-acetate), 20 min at 4 °C; single-particle cryo-EM, 3.77 Å

Sequence of PolD DP1 (small subunit, exonuclease-deficient);PolD DP2 (large catalytic subunit);PCNA (Q9V2F3 whole entry H451A, one chain of several): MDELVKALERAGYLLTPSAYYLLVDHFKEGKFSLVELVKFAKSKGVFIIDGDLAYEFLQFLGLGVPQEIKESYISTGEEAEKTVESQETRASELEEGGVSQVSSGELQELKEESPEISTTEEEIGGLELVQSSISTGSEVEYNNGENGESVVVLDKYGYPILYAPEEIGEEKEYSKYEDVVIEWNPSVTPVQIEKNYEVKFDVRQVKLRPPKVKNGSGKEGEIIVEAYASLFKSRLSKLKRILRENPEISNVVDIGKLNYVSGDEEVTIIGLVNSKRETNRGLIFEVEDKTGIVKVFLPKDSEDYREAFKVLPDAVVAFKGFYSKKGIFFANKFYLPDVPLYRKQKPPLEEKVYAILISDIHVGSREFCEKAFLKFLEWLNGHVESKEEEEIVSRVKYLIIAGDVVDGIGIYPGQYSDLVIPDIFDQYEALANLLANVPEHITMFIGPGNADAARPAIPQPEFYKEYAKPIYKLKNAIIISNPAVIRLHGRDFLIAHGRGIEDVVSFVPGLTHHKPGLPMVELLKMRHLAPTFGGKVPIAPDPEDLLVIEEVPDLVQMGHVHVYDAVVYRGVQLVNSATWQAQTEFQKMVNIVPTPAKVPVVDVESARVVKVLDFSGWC
Sequence of primase (Saccharomyces cerevisiae) (P10363 whole entry, chain 1 of 2): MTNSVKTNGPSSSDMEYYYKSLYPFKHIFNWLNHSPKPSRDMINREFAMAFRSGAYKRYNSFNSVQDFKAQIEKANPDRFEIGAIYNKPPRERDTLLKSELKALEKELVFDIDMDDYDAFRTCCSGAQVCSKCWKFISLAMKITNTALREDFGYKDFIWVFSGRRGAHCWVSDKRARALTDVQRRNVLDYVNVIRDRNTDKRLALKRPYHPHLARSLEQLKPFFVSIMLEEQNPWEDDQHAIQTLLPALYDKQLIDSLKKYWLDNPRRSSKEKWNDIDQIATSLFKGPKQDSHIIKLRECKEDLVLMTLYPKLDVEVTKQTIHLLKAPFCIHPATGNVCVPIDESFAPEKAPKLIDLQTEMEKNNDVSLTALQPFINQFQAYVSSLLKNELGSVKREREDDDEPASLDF
Sequence of primase (Saccharomyces cerevisiae) (P20457 whole entry, chain 2 of 2, further chain): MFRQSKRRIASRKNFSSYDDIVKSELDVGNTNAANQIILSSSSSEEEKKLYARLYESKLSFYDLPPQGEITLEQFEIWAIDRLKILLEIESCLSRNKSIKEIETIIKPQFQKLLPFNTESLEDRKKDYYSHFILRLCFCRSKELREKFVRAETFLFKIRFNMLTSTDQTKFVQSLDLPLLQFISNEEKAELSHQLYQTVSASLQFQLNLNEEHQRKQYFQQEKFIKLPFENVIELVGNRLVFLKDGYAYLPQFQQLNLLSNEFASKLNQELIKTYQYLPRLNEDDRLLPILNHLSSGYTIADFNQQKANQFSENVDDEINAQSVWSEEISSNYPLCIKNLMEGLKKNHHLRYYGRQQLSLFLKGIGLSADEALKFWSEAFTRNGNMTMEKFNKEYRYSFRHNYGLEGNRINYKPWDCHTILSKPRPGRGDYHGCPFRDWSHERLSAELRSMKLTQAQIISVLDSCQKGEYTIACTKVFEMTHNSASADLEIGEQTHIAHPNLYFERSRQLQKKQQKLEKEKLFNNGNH

Molecule: DNA polymerase alpha C-terminus (from UniProt P13382)
Kd [1]: 245 nM

B1: primer-template duplex (18-mer primer / 25-mer template) (dsDNA)
DNA 1: CGCCGGGCCGAGCCGTGC
DNA 2: AGGTCGTGCACGGCTCGGCCCGGCG
binding result [2]: binds

Kd [3]: 49000 ± 4000 nM
B2: cPIP peptide (12 amino-acid peptide mimicking the DP2 C-terminal PIP-box) (peptide)
peptide: KKRVISLEEFFS
notes: C-terminal PIP-box (cPIP) of PolD DP2, Pyrococcus abyssi; limits worked out from the printed residues V1258, I1259, L1261, F1264; also called canonical PIP-box; source: synthetic peptide (Smart Bioscience)

Kd [4]: 472 ± 120 nM
B3: MBP–iPIP-cPIP fusion (DP2:1196–1270) (domain or fragment, Pyrococcus abyssi, UniProt Q9V2F4 1381-1455, looked up)
chain: ETQLTLIVNPNDICQRLVMARTGEVNKSGLLENLSNGSKKTEKAEKAEKPRKKSDEKPKKKRVISLEEFFSRKSK
notes: C-terminal region of PolD DP2, Pyrococcus abyssi, residues 1196-1270, holding iPIP and cPIP; pIVEX His-MBP-TEV plasmid; TEV-cleavable N-terminal His6-MBP tag, kept for capture on Ni-NTA biosensors; also called His-MBP-fused DP2 construct; source: E. coli BL21-CodonPlus (DE3)-RIPL, purified (HisTrap, heparin, size exclusion; no heat step); not shown: His6, N-terminal, kept; MBP, N-terminal, kept

Molecule: B4
stoichiometry N [5]: 3
